Reference: patent US20220162314A1

Target: Recombinant human CD8ab protein (extracellular domains of CD8a and CD8b with leucine zippers and tags) (human) (UniProt P01732)
Assay: ELISA: antigen coated on the plate, antibody titrated, anti-IgG (Fc)-HRP and TMB, A450

Recombinant human CD8ab protein (extracellular domains of CD8a and CD8b with leucine zippers and tags) (human), sequence (P01732 22-182, chain 1 of 2): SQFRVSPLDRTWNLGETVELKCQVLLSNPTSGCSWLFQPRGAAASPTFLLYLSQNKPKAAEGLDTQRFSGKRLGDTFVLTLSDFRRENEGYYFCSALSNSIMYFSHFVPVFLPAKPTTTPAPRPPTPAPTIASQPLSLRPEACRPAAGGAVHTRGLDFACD
Recombinant human CD8ab protein (extracellular domains of CD8a and CD8b with leucine zippers and tags) (human), sequence (P10966 22-170, chain 2 of 2, further chain): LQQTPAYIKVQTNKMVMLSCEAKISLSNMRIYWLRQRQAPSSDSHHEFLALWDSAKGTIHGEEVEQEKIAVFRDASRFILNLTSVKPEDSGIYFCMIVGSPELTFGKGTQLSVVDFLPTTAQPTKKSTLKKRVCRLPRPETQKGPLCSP

B1: xhCD8a1 (clone OKT8, Invitrogen) (antibody, from another filing, V domains shown)
VH: EVQLQQSGAELVKPGASVKLSCTASGFNIKDTYIHFVRQRPEQGLEWIGRIDPANDNTLYASKFQGKATITADTSSNTAYMHLCSLTSGDTAVYYCGRGYGYYVFDHWGQGTTLTVSS
VL: DVQINQSPSFLAASPGETITINCRTSRSISQYLAWYQEKPGKTNKLLIYSGSTLQSGIPSRFSGSGSGTDFTLTISGLEPEDFAMYYCQQHNENPLTFGAGTKLELK
**Q.** Which EC50 (read off the curve) does the source give for B1 here?
**A.** The EC50 (read off the curve) was 0.2 nM.
